Data reported in the supplement of paper PMC11865577.

Columns and labels:
Assay in all cases: pull-down binding Z-score (relative to library population); higher = stronger binding
TO-N3 (biotin conjugate) = conditions: RNA library: Library-2
In short: (§1)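 A heat-folded, dye-end-labelled (Cy5 or Cy3) RNA library (1 μg, phosphate/NaCl/KCl buffer) was exposed for 60 min at 25 °C to streptavidin beads holding 100 pmol of biotin-conjugated small molecule. RNA retained on the beads was eluted in hot SDS and hybridised to a DNA barcode microarray for 20 h at 55.5 °C. Binding scores were Z-scores against the library mean and standard deviation, calculated after subtracting beads alone and taking trimmed means of replicate probes.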

[1] = tested on: G-clamp-N3 (biotin conjugate); conditions: RNA library: Library-1 (pre-miRNA loops + repeats)
In short: as §1

[2] = tested on: TO-N3-2 (biotin conjugate); conditions: RNA library: Library-2
In short: as §1

[3] = tested on: TO-3-N3-2 (biotin conjugate); conditions: RNA library: Library-2
In short: as §1

[4] = tested on: TO-3-N3 (biotin conjugate); conditions: RNA library: Library-2
In short: as §1

Row | Sequence | pull-down binding Z-score (TO-N3 (biotin conjugate)) | pull-down binding Z-score [1] | pull-down binding Z-score [2] | pull-down binding Z-score [3] | pull-down binding Z-score [4]
1 | UAUUUCAAAAGACUAGAGGUAGGAAAUGAG [hsa-mir-3975] | -0.42 | 2.94 | -0.211 | 0.381 | -0.57
2 | UUUGUUGAAAGAAUAAAUAAACCAACAAG [hsa-mir-1264] | -0.367 | -0.724 | -0.365 | 0.0773 | -0.424
3 | CAUGCAUGUGUCUAGAAAUAUGUUUU [hsa-mir-507] | 0.0527 | 0.0271 | 0.104 | 0.0237 | -0.147
4 | GUGUAUGGGCUGAGCCUUGC [hsa-mir-6805] | 0.44 | 0.279 | 0.868 | 0.0312 | -0.021
5 | UGUGCCUUGCCUUUCCUUUGGCACA [hsa-mir-4438] | -0.0545 | 0.155 | -0.0304 | -0.183 | -0.0269
6 | UCCUCUCCUGGUCUGGGAGGAUAGAAGAGAGGA [hsa-mir-5191] | 0.823 | 1.96 | 3.13 | -0.219 | -0.205
7 | CUGUGUGAGGACUAGAGGCGG [hsa-mir-4523] | 0.511 | 1.39 | 1.05 | 0.44 | 0.0476
8 | CCAAGCUUAGUUUGG [hsa-mir-1302-11_1302-10_1302-3_1302-2_1302-9] | 0.572 | 0.00542 | -0.61 | -0.446 | 0.74
9 | GAAGGGGAGUUUCCCUCUAUUCCCUUC [hsa-mir-3679] | -0.0396 | -0.729 | -0.594 | -0.155 | 0.265
10 | UGAGUGAUGACUCAGGCGACUCCA [hsa-mir-338] | 0.461 | 1.31 | 1.51 | -0.0635 | -0.345
11 | GGGGUGGCUGCGGGCCUUCUGAAGGUCUCCC [hsa-mir-662] | 0.946 | 0.76 | 1.24 | 0.448 | 0.427
12 | AGGACACAGGCUGGCACUGAGGUCCC [hsa-mir-6887] | 0.639 | -0.394 | 1.41 | -0.0807 | 0.0768
13 | GAGUAUUUUAAUACUGGCAUACUC [hsa-mir-1263] | -0.837 | -0.0468 | -0.98 | 0.095 | -0.584
14 | CUGUCUGUUGUCUAAGAAAAGAUCG [hsa-mir-517c_517b] | -0.0242 | 0.565 | 0.202 | 0.294 | -0.481
15 | CAAGCACACAGGGCCUGGGACUAGCAUG [hsa-mir-4728] | 0.993 | -0.152 | 1.52 | 0.256 | 0.506
16 | AAAGCCAGGGACCCUGAGAGGCUUU [hsa-mir-6885] | 0.556 | 3.29 | 1.24 | 0.0899 | 0.0246

Row | Sequence | pull-down binding Z-score (TO-N3 (biotin conjugate)) | pull-down binding Z-score [1] | pull-down binding Z-score [2] | pull-down binding Z-score [3] | pull-down binding Z-score [4]
17 | AGUUCCUGAUUAAGAAAUGGAAUU [hsa-mir-4699] | -0.814 | -0.224 | -1 | -0.107 | -0.435
18 | GUCUUGGGGUGGGGGAUCAAGAC [hsa-mir-642a] | 2.61 | 0.431 | 1.89 | 2.9 | 2.99
19 | GGUGGGUGCC [hsa-mir-1268b] | -0.332 | -0.587 | -0.075 | -0.32 | -0.142
20 | CGUAUGUGUAUAUAAAUGUAUACG [hsa-mir-1277] | -1.29 | 0.912 | -1.36 | -0.547 | -0.965
21 | GAAGCGAGAUGUUUGUCUAAA [hsa-mir-6835] | 0.398 | -0.211 | 0.915 | 0.262 | 0.00611
22 | GACACCUGGAUUCAGAGAACAUGUC [hsa-mir-1276] | -0.156 | -0.716 | 0.137 | -0.0538 | -0.322
23 | GAAAUGUGUGGAAGAUGGCAUUUC [hsa-mir-4482] | -0.302 | 2.74 | 0.278 | -0.00894 | -0.346
24 | AUUCUGGAGUCCAUCUAGAG [hsa-mir-1182] | -0.598 | -1.08 | -0.297 | -0.378 | -0.538
25 | ACCACCCAGGCCUUAUGGCUUCAUA [hsa-mir-7974] | 0.233 | -1.68 | 0.0927 | -0.0756 | -0.102
26 | AACUCUGUUGAAUAUAAAUUGGAAUU [hsa-mir-367] | -0.572 | -0.214 | -0.424 | 0.00577 | -0.404
27 | CACCAGCCAGGCAUUGCUCAGCCCGUUUCCCUCUGGGGGAGCAAGGAGUGGUGCUGGGUUUGUC [hsa-mir-593] | 1.15 | -0.156 | 1.24 | -0.0489 | 0.762
28 | AGUCACUUACACUACAUGUCACU [hsa-mir-892a] | -1.08 | -0.82 | -0.587 | -0.63 | -0.926
29 | AAGGCCCUUGGGCACCCCAGGCCUU [hsa-mir-5700] | 0.181 | -1.26 | 0.656 | -0.081 | 0.259
30 | GUCUGCCAAAACCUUGGCAGAC [hsa-mir-3913-1] | -1.02 | 0.901 | -1.22 | -0.517 | -0.531
31 | UUUCUUAAAUUUUAUAUAUUGGAA [hsa-mir-1284] | -0.124 | -0.71 | -1.11 | -0.0723 | 0.193
32 | GGGUCGUGGGAAAGUGUUGACCC [hsa-mir-4655] | 0.5 | 1.79 | 0.588 | 0.276 | 0.166
